Consider 1 molecule from publication PMC11550485 (Science (New York, N.Y.), 2023).

In this assay the target is 6×His-GFP-tau (human, UniProt P10636-8 1-441). The assay can be described thus: pull-down.

B1: GST-TRIM11 (natural protein, human, UniProt Q96F44 1-468, looked up)
chain: MAAPDLSTNLQEEATCAICLDYFTDPVMTDCGHNFCRECIRRCWGQPEGPYACPECRELSPQRNLRPNRPLAKMAEMARRLHPPSPVPQGVCPAHREPLAAFCGDELRLLCAACERSGEHWAHRVRPLQDAAEDLKAKLEKSLEHLRKQMQDALLFQAQADETCVLWQKMVESQRQNVLGEFERLRRLLAEEEQQLLQRLEEEELEVLPRLREGAAHLGQQSAHLAELIAELEGRCQLPALGLLQDIKDALRRVQDVKLQPPEVVPMELRTVCRVPGLVETLRRFRGDVTLDPDTANPELILSEDRRSVQRGDLRQALPDSPERFDPGPCVLGQERFTSGRHYWEVEVGDRTSWALGVCRENVNRKEKGELSAGNGFWILVFLGSYYNSSERALAPLRDPPRRVGIFLDYEAGHLSFYSATDGSLLFIFPEIPFSGTLRPLFSPLSSSPTPMTICRPKGGSGDTLAPQ
For B1, the binding result is listed as “binds”.
